167 variants from the RNAGym collection of RNA variant scans (doi:10.7554/elife.90254) can be followed below.

B1: LINE1-full (parent)
chain: UACGUAGGUGGUUUUCCCCUGAUAGUGCUAAGGGGGCCUGGAAGUUUGGACUGGGCAGAGCUCAACACAGCGUGGCAAAGUGGCUGUGGCUAGACUGCCUCUCUGGAUUCCUCGUCACUCAGCAGGGCAUCUCUGAGAGAAAUGCC

Variants of B1 are the subject of the data set. Description: self-cleavage, relative activity (ratio to wild type); higher = more cleavage; in vitro, sequencing; the parent is a self-cleaving ribozyme.
Regarding U20C U52A, the self-cleavage is 0.69. Next, G21A A140G: 1.3; U20C U62C: 0.1; G21A A117U: 1.55. A22G A142G: the self-cleavage amounted to 1.23.

Regarding U20C U104C, the self-cleavage was 1.51. For U20G A77G, the self-cleavage stood at 1.36. As to U20G A136U, the self-cleavage amounted to 0.98. Next, U20C U29A: 0.62; U20C U29C: 1.27. As to U20C U100C, the self-cleavage turned out to be 1.69. Regarding U20C U100A, the self-cleavage was 0.81. Under G21A U115A stands 1.46. Next, A22G C99U: 0.23; A22G G86A: 0.07. Next, U20C U91A: 0.55; U20C U91C: 0.76; U20C U108C: 1.62. Take G21A U46C: the self-cleavage was determined as 1.31.

For the variant G21A U45A, the self-cleavage came out at 1.58.

As for G21A U45C, the self-cleavage amounted to 0.84. Turning to G21U U85G, the self-cleavage came to 0.08. Next, U20G C95U: 0.29. Next, U20G U96C: 0.26; U20G A121G: 1.27; G21U A77G: 1.7. Consider A22G G72A, for which the self-cleavage stood at 1.94. For the variant G21A C28U, the self-cleavage stood at 1.22. Next, U20C U46A: 0.85. Turning to U20C U46G, the self-cleavage came to 1.52. Next, A22G A140G: 0.8; A22G A140U: 1.05. As for A22G A138G, the self-cleavage amounted to 1.25. Next, U20G G41U: 0.84. Next, A22G A94U: 0.37. Under A22G A94G stands 0.56; under A22G A94C, 0.07. Turning to A22G G82A, the self-cleavage turned out to be 1.94. Under A22G C61U stands 0.07; under U20C U143A, 1.5.

As for U20C U115A, the self-cleavage turned out to be 1.54. Regarding A22G G35U, the self-cleavage worked out at 0.6. In the case of A22G G122A, the self-cleavage is 0. Under A22G A59C stands 1.31; under A22G A59U, 0.33.

For the variant A22C U85C, the self-cleavage was 0.35. As for U20G U91A, the self-cleavage is 0.47.

Regarding U20G A79G, the self-cleavage came out at 1.17. U20G G34A: the self-cleavage is 0.69.

Turning to U20C U134A, the self-cleavage was 0.96. Under U20C U134C stands 1.57. As to U20C U134G, the self-cleavage came out at 0.77. Consider U20C U47A, for which the self-cleavage was determined as 1.19. Under G21A A129U stands 1.17; under A22G A42U, 1.31; under A22G A42G, 0.93.

A22G A117C: the self-cleavage was 2.12. Next, U20C U87C: 0.24. Consider U20C U87A, for which the self-cleavage is 0.1. Next, G21A U29C: 1.04. Under U20C U132G stands 0.46. In the case of U20G A22G, the self-cleavage came to 0.41. Under U20G U108C stands 1.97.

With A22G A31G, the self-cleavage came to 0.35. A22G A31U: the self-cleavage worked out at 0.86.

For the variant A22G, the self-cleavage amounted to 1.12. Consider A22C, for which the self-cleavage was 1.51. Take A22G A121G: the self-cleavage turned out to be 0.95. Under A22G A121U stands 1; under A22G A92C, 0.12. Next, U20G U112C: 0.76; A22G G54A: 0.75; A22G G54U: 0.23.

With A22G A78C, the self-cleavage came out at 1.45. Under G21A U91C stands 0.35; under G21A U39C, 0.78; under G21U A94G, 0.18.

Turning to G21A U85C, the self-cleavage was 0.18.

In the case of G21U U115C, the self-cleavage is 2.18. On to A22C A92U, for which the self-cleavage stood at 1.7. Consider A22C A140G, for which the self-cleavage stood at 1.65.

In the case of G21U U119C, the self-cleavage stood at 1.84. Under G21A A65U stands 0.21; under A22G G80U, 1. Under G21A C146U stands 1.56.

Consider A22G C133U, for which the self-cleavage was determined as 0.58. Next, U20G C37A: 1.04; A22G C76U: 1.39; G21A A31U: 1.43. Consider U20G A67U, for which the self-cleavage was 0.11. Under G21A A78G stands 1.31. Consider G21U U96C, for which the self-cleavage amounted to 0.06. Next, A22G G53U: 1.29; A22C A50G: 1.86. Under G21U G72A stands 1.62; under U20G U119C, 1.74. Under A22G C66U stands 0.07; under G21A A67G, 0.48. With A22G A67C, the self-cleavage is 0.23.

A22G G33U: the self-cleavage worked out at 1.25. A22G A107G: the self-cleavage stood at 0.82. For G21A A142G, the self-cleavage came to 1.66. Next, G21A A94G: 0.1; A22G G36A: 1.36; G21A U102A: 1.14. As to A22C A142G, the self-cleavage amounted to 1.27.

In the case of A22G G44A, the self-cleavage was found to be 1.25. Under U20G U81A stands 2.03; under U20G U81C, 1.08; under G21U C51A, 1.48. In the case of G21A U109A, the self-cleavage came out at 0.64. Under G21A U109C stands 0.95.

For the variant U20G G48A, the self-cleavage was determined as 0.43. Under A22G G40A stands 0.55; under G21A U104A, 1.27; under A22G A77U, 0.79. Under A22G A77C stands 1.09; under A22G A77G, 1.77. Next, A22G A24G: 0.98. Turning to A22G G49A, the self-cleavage worked out at 0.84. Take U20G U85A: the self-cleavage came to 0.24. Under U20G A69G stands 1.05; under A22G A141G, 1.27; under A22G G89A, 0.09.

As for A22C A77U, the self-cleavage worked out at 0.35. On to G21A A77G, for which the self-cleavage came out at 2.18.

For G21A A77U, the self-cleavage is 1.18. Consider G21A U134A, for which the self-cleavage came to 1.17. A22C U73C: the self-cleavage is 1.88. Next, A22G A79G: 0.76. For the variant G21C U143C, the self-cleavage amounted to 1.97.

Consider G21A G82A, for which the self-cleavage was 2. Take G21A A50G: the self-cleavage worked out at 0.71.

G21A A50C: the self-cleavage worked out at 0.9. For the variant U20C U39C, the self-cleavage amounted to 1.28. Under U20C U39A stands 1.48.

Turning to U20G A142G, the self-cleavage was found to be 1.09. Next, U20C U96C: 0.08; G21U U91C: 0.45; G21U A65C: 0. Under A22G G93A stands 0.03. Take U20C U109A: the self-cleavage was 1.54.

On to U20C U109C, for which the self-cleavage amounted to 1.34. Next, A22G A43G: 1.02; A22C A129U: 1.96. For G21A U81A, the self-cleavage was 1.8. Next, G21A G33A: 1.39; U20C U102A: 1.21.

As for U20C U102C, the self-cleavage was 1.25. For the variant A22C U119A, the self-cleavage turned out to be 2.09.

For A22G C71U, the self-cleavage is 0.55.

For the variant G21A A59G, the self-cleavage was determined as 0.04. On to G21A U112C, for which the self-cleavage is 1.02. Under G21U U62A stands 0.02; under U20G, 1.1; under A22C U143A, 1.53. Next, G21A U96A: 0.06; A22G A69C: 0; A22G C37U: 0.94. Under A22G A50U stands 1.32. As for A22G C116U, the self-cleavage amounted to 0.24. Next, A22G A129G: 1.45; A22G A129U: 0.67; A22C A141G: 1.34. For the variant U20G A57U, the self-cleavage was 0.21. Under A22G G75A stands 1.13; under U20C U112G, 0.54.
